Reference: paper PMC9482650, “Quantitative fragmentomics allow affinity mapping of interactomes” (Nature Communications, 2022)

How the values were obtained:
Assay in all cases: holdup assay
Parameters in all cases: key: below the threshold = too weak to quantify, mostly under pKd 3.1 to 4
Details in all cases: plain residues with an end cap or a label only (N-terminal biotin on a linker: ado-ado)
APBA2_1, Q99767 = molecular target: T1, APBA2_1, Q99767
T1 sequence (Q99767 563-664, limits assumed, looked up): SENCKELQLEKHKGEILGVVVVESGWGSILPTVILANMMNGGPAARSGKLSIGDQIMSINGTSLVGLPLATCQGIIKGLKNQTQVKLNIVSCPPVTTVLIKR

ARHGEF12, Q9NZN5-2 = molecular target: ARHGEF12, Q9NZN5-2
Sequence of ARHGEF12, Q9NZN5-2 (Q9NZN5 other isoform, or with tags, fused parts or gaps): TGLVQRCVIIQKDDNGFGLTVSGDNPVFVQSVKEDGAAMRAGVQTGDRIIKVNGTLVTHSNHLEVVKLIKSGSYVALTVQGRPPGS

CASK, O14936 = molecular target: CASK, O14936
Sequence of CASK, O14936 (O14936 487-570): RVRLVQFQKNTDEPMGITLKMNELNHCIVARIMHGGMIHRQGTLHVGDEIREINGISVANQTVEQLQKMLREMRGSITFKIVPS

DLG3_1, Q92796 = molecular target: T2, DLG3_1, Q92796
T2 sequence (Q92796 125-227, limits assumed, looked up): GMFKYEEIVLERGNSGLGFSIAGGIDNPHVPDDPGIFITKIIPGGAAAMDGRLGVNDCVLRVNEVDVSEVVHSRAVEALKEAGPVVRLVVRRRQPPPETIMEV

DLG3_2, Q92796 = molecular target: T3, DLG3_2, Q92796
T3 sequence (Q92796 221-321, limits assumed, looked up): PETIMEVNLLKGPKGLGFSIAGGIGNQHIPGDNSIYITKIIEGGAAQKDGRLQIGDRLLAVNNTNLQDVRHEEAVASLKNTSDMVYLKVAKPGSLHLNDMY

DLG5_1, Q8TDM6 = molecular target: DLG5_1, Q8TDM6
Sequence of DLG5_1, Q8TDM6 (Q8TDM6 617-713): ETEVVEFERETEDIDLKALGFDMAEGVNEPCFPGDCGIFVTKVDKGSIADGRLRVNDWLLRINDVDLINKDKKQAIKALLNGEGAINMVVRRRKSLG

FRMPD3, Q5JV73 = molecular target: FRMPD3, Q5JV73
Sequence of FRMPD3, Q5JV73 (Q5JV73 12-100): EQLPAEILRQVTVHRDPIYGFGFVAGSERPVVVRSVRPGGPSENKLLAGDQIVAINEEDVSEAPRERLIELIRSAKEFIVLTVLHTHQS

GOPC, Q9HD26 = molecular target: GOPC, Q9HD26
GRASP, Q7Z6J2 = molecular target: GRASP, Q7Z6J2
Sequence of GRASP, Q7Z6J2 (Q7Z6J2 96-193): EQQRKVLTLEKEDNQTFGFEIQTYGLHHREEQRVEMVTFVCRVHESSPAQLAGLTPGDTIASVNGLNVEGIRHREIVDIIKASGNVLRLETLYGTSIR

GRID2IP_1, A4D2P6 = molecular target: GRID2IP_1, A4D2P6
Sequence of GRID2IP_1, A4D2P6 (A4D2P6 1-87): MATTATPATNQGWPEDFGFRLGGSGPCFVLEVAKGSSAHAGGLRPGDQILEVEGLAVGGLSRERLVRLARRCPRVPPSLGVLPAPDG

IL16_4, Q14005 = molecular target: IL16_4, Q14005
Sequence of IL16_4, Q14005 (Q14005 1229-1329): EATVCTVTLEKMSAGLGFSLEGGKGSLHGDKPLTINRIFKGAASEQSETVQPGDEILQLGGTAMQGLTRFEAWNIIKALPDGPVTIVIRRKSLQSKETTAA

LIMK2, P53671 = molecular target: LIMK2, P53671
Sequence of LIMK2, P53671 (P53671 143-248): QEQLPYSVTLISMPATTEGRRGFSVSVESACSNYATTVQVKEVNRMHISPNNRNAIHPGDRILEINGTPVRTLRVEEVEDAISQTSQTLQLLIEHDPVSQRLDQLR

MAGI1_2, Q96QZ7 = molecular target: MAGI1_2, Q96QZ7
Sequence of MAGI1_2, Q96QZ7 (Q96QZ7 456-580): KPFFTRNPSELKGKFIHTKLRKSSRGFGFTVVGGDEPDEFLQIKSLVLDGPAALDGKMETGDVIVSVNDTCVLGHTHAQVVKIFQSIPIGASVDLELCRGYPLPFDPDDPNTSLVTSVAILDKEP

MAST2, Q6P0Q8 = molecular target: MAST2, Q6P0Q8
Sequence of MAST2, Q6P0Q8 (Q6P0Q8 1099-1202): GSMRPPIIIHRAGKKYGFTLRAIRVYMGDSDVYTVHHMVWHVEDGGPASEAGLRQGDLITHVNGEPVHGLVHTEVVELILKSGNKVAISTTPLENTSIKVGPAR

MPDZ_10, O75970 = molecular target: T4, MPDZ_10, O75970
T4 sequence (O75970 1624-1722, limits assumed, looked up): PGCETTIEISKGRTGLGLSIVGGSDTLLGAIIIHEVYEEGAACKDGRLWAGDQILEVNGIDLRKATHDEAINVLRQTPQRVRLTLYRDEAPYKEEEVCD

NHERF3_1, Q5T2W1 = molecular target: T5, NHERF3_1, Q5T2W1
T5 sequence (Q5T2W1 4-100, limits assumed, looked up): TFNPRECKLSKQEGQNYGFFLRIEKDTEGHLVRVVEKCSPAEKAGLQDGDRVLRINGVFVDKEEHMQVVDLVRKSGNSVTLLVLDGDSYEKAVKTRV

NHERF4_1, Q86UT5-2 = molecular target: NHERF4_1, Q86UT5-2
Sequence of NHERF4_1, Q86UT5-2 (Q86UT5 other isoform, or with tags, fused parts or gaps): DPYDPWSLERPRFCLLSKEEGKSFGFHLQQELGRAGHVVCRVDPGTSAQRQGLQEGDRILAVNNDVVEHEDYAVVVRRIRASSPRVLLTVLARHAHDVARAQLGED

PDZRN4_1, Q6ZMN7 = molecular target: PDZRN4_1, Q6ZMN7
Sequence of PDZRN4_1, Q6ZMN7 (Q6ZMN7 213-318): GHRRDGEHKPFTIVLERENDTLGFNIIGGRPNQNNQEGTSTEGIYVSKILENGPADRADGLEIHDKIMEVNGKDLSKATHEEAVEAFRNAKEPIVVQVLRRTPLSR

RHPN1, Q8TCX5 = molecular target: T6, RHPN1, Q8TCX5
T6 sequence (Q8TCX5 508-602, limits assumed, looked up): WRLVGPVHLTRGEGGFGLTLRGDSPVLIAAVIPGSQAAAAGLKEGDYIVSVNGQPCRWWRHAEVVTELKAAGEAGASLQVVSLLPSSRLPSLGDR

SCRIB_1, Q14160 = molecular target: SCRIB_1, Q14160
Sequence of SCRIB_1, Q14160 (Q14160 718-814): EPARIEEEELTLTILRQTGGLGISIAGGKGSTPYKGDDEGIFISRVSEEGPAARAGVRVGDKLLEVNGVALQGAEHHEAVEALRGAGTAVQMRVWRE

SHANK1, Q9Y566 = molecular target: T7, SHANK1, Q9Y566
T7 sequence (Q9Y566 658-767, limits assumed, looked up): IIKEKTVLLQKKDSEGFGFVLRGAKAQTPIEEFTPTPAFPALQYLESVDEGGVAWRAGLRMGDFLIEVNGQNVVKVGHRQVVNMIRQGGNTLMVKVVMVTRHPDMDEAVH

SNTA1, Q13424 = molecular target: T8, SNTA1, Q13424
T8 sequence (Q13424 82-180, limits assumed, looked up): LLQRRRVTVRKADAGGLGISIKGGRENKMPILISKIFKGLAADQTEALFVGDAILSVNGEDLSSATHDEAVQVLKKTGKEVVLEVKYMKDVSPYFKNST

SNTG1, Q9NSN8 = molecular target: T9, SNTG1, Q9NSN8
T9 sequence (Q9NSN8 52-150, limits assumed, looked up): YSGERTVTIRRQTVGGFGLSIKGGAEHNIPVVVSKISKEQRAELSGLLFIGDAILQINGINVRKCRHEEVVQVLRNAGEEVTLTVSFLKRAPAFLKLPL

SYNJ2BP, P57105 = molecular target: T10, SYNJ2BP, P57105
T10 sequence (P57105 8-110, limits assumed, looked up): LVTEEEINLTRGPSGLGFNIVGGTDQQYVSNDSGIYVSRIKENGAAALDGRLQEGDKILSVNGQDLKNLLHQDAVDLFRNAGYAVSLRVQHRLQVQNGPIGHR

TJP3_3, O95049 = molecular target: T11, TJP3_3, O95049
T11 sequence (O95049 375-456, limits assumed, looked up): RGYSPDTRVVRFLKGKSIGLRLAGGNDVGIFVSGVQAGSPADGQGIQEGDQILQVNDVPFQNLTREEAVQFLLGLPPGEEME

TX1BP3, O14907 = molecular target: T12, TX1BP3, O14907
T12 sequence (O14907 10-122, limits assumed, looked up): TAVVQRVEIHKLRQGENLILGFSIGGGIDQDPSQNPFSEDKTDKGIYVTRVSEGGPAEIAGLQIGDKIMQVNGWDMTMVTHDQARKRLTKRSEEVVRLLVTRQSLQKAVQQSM

Binder: RRLQGTSSMV [GOLT1A, Q6ZVE7]
- pKd (APBA2_1, Q99767): below the threshold
- pKd (ARHGEF12, Q9NZN5-2): 3.81
- pKd (CASK, O14936): below the threshold
- pKd (DLG3_1, Q92796): 3.81
- pKd (DLG3_2, Q92796): 4.67
- pKd (DLG5_1, Q8TDM6): below the threshold
- pKd (FRMPD3, Q5JV73): below the threshold
- pKd (GOPC, Q9HD26): below the threshold
- pKd (GRASP, Q7Z6J2): 3.89
- pKd (GRID2IP_1, A4D2P6): below the threshold
- pKd (IL16_4, Q14005): below the threshold
- pKd (LIMK2, P53671): below the threshold
- pKd (MAGI1_2, Q96QZ7): 4.04
- pKd (MAST2, Q6P0Q8): 4.72
- pKd (MPDZ_10, O75970): 3.65
- pKd (NHERF3_1, Q5T2W1): 4.09
- pKd (NHERF4_1, Q86UT5-2): below the threshold
- pKd (PDZRN4_1, Q6ZMN7): below the threshold
- pKd (RHPN1, Q8TCX5): 3.58
- pKd (SCRIB_1, Q14160): below the threshold
- pKd (SHANK1, Q9Y566): below the threshold
- pKd (SNTA1, Q13424): below the threshold
- pKd (SNTG1, Q9NSN8): 3.7
- pKd (SYNJ2BP, P57105): 4.72
- pKd (TJP3_3, O95049): below the threshold
- pKd (TX1BP3, O14907): 3.9

Binder: ALPLPQSSTC [IGF1R, P08069]
- pKd (APBA2_1, Q99767): below the threshold
- pKd (ARHGEF12, Q9NZN5-2): 4.95
- pKd (CASK, O14936): below the threshold
- pKd (DLG3_1, Q92796): below the threshold
- pKd (DLG3_2, Q92796): 4.22
- pKd (DLG5_1, Q8TDM6): below the threshold
- pKd (FRMPD3, Q5JV73): below the threshold
- pKd (GOPC, Q9HD26): 3.55
- pKd (GRASP, Q7Z6J2): 4.12
- pKd (GRID2IP_1, A4D2P6): below the threshold
- pKd (IL16_4, Q14005): below the threshold
- pKd (LIMK2, P53671): below the threshold
- pKd (MAGI1_2, Q96QZ7): below the threshold
- pKd (MAST2, Q6P0Q8): 4.31
- pKd (MPDZ_10, O75970): 3.56
- pKd (NHERF3_1, Q5T2W1): below the threshold
- pKd (NHERF4_1, Q86UT5-2): 3.88
- pKd (PDZRN4_1, Q6ZMN7): below the threshold
- pKd (RHPN1, Q8TCX5): 3.58
- pKd (SCRIB_1, Q14160): 3.8
- pKd (SHANK1, Q9Y566): below the threshold
- pKd (SNTA1, Q13424): below the threshold
- pKd (SNTG1, Q9NSN8): below the threshold
- pKd (SYNJ2BP, P57105): 3.67
- pKd (TJP3_3, O95049): below the threshold
- pKd (TX1BP3, O14907): below the threshold

Binder: TGPWKNETTV [ADGRA1, Q86SQ6]
- pKd (APBA2_1, Q99767): below the threshold
- pKd (ARHGEF12, Q9NZN5-2): 4.05
- pKd (CASK, O14936): below the threshold
- pKd (DLG3_1, Q92796): 4.47
- pKd (DLG3_2, Q92796): 5.01
- pKd (DLG5_1, Q8TDM6): below the threshold
- pKd (FRMPD3, Q5JV73): below the threshold
- pKd (GOPC, Q9HD26): 3.69
- pKd (GRASP, Q7Z6J2): below the threshold
- pKd (GRID2IP_1, A4D2P6): below the threshold
- pKd (IL16_4, Q14005): below the threshold
- pKd (LIMK2, P53671): below the threshold
- pKd (MAGI1_2, Q96QZ7): 4.67
- pKd (MAST2, Q6P0Q8): 5.31
- pKd (MPDZ_10, O75970): below the threshold
- pKd (NHERF3_1, Q5T2W1): below the threshold
- pKd (NHERF4_1, Q86UT5-2): below the threshold
- pKd (PDZRN4_1, Q6ZMN7): 4.31
- pKd (RHPN1, Q8TCX5): 4.55
- pKd (SCRIB_1, Q14160): 4.34
- pKd (SHANK1, Q9Y566): below the threshold
- pKd (SNTA1, Q13424): 4.59
- pKd (SNTG1, Q9NSN8): 4.19
- pKd (SYNJ2BP, P57105): 5.13
- pKd (TJP3_3, O95049): below the threshold
- pKd (TX1BP3, O14907): 4.47
